{"source": "patent US10792329B2", "about": "“S100 based treatment of cardiac power failure” (Ruprecht-Karls-Universitat Heidelberg, priority 2013, dated 2020)", "type_in_all_cases": "in vivo", "key": {"[1]": {"tested_on": "C57B/6 mice with impaired cardiac function due to experimental myocardial infarction", "assay": "β-adrenergically triggered ventricular tachyarrhythmias in failing mouse hearts", "description": "(§1) The therapeutic window of viral-based re-expression and augmentation of myocardial S100A1 protein concentrations in mice with impaired cardiac function was then analysed. The results for S100A1 dose-dependency in normal mice provides the basis for determining the therapeutic window of S100A1 re-expression in C57B/6 mice with impaired cardiac function due to experimental myocardial infarction through temporary occlusion of the left anterior coronary artery as technically described in detail in Brinks et al. Circ Res (2010) 107; 1140-1149. Techniques for intravenous application of AAV9 for gradual increases in global myocardial transgene expression are described in detail in Voelkers et al. Circ Res (2011) 108; 27-39; in Most et al. JCI (2004) 114; 1550-1563 echocardiography for cardiac function analysis. […] Total S100A1 protein amount in murine myocardium was assessed by ELISA as described in detail in Example 4. S100A1 concentrations were measured by Western Blot as described by Most et al. JCI (2004) 114; 1550-1563 using a custom-made rabbit anti-S100A1 polyclonal IgG antibody (SA 5632). […] Conversion between n-fold relative changes assessed by WB and total myocardial S100A1 protein measured by ELISA is given by the second x-axis. […]"}, "[2]": {"tested_on": "C57B/6 mice with impaired cardiac function due to experimental myocardial infarction", "assay": "Cardiac function (LV EF %, LV+dp/dt max) in failing mouse hearts", "description": "The therapeutic window of viral-based re-expression and augmentation of myocardial S100A1 protein concentrations in mice with impaired cardiac function was then analysed. The results for S100A1 dose-dependency in normal mice provides the basis for determining the therapeutic window of S100A1 re-expression in C57B/6 mice with impaired cardiac function due to experimental myocardial infarction through temporary occlusion of the left anterior coronary artery as technically described in detail in Brinks et al. Circ Res (2010) 107; 1140-1149. Techniques for intravenous application of AAV9 for gradual increases in global myocardial transgene expression are described in detail in Voelkers et al. Circ Res (2011) 108; 27-39; in Most et al. JCI (2004) 114; 1550-1563 echocardiography for cardiac function analysis. AAV9-S100A1 and corresponding control vector generation and use the cardiac specific promoter element to drive expression of both transgenes is described in detail in Pleger et al. Science Translational Medicine (2011) 3, 92ra64. The S100A1 re-/overexpression 0.7, 2, 4, 8, 20 and 50 fold corresponds to intravenous AAV9-S100A1 dosages (total virus particles; tvp) 2×10^10 ′, 5×10^10, 1×10^11, 2×10^11, 5×10^11, 1×10^12 respectively. Total S100A1 protein amount in murine myocardium was assessed by ELISA as described in detail in Example 4. S100A1 concentrations were measured by Western Blot as described by Most et al. JCI (2004) 114; 1550-1563 using a custom-made rabbit anti-S100A1 polyclonal IgG antibody (SA 5632). Total S100A1 protein amounts below 0.83 μg S100A1 protein/g wet weight myocardium characterizes failing left ventricular myocardium with impaired contractile function. Conversion between n-fold relative changes assessed by WB and total myocardial S100A1 protein measured by ELISA is given by the second x-axis.\nTherapeutic actions peak around 4-fold S100A1 overexpression relating to a total S100A1 protein amount of 3.32 μg S100A1 protein/g wet weight myocardium. The S100A1 therapeutic window of contractile performance enhancement falls into the range between 0.25 and 41.4 μg S100A1 protein/g wet weight myocardium. Values reflect the relative range from re-expression to normal and up to 50 fold relative increase in S100A1 protein levels."}, "[3]": {"tested_on": "domestic pigs with impaired cardiac function (post-ischemic heart failure)", "assay": "CrP/ATP as surrogate for cardiac metabolism in failing pig myocardium", "settings": "re-expression to normal and up to a 50 fold increase", "description": "(§2) This Example details the therapeutic window of viral-based re-expression and augmentation of myocardial S100A1 protein concentrations in domestic pigs with impaired cardiac function. The results for S100A1 dose-dependency in heart failure mice provide the base for determining the therapeutic window of S100A1 re-expression animal models that approximate human weight, size and cardiovascular anatomy and pathophysiology. Post-ischemic heart failure in pigs was induced by experimental myocardial infarction through temporary occlusion of the left circumflex coronary artery by percutaneous balloon occlusion. S100A1 re-expression and overexpression was achieved by retrograde intravenous application of increasing dosages of AAV6-S100A1 with S100A1 expression controlled by a cardiac specific promoter element. Analytical techniques and molecular tools used to this end are described in detail in Pleger et al. Science Translational Medicine (2011) 3, 92ra64. AAV6 was used in addition to AAV9 exploiting its greater myocardial transduction efficacy of AAV6 to achieve increasing myocardial S100A1 protein concentrations. S100A1 re-/overexpression 1.6, 6, 20 and 50 fold corresponds to intravenous AAV9-S100A1 dosages (total virus particles; tvp) of 1.5×10^13 (1.6-fold) and AAV6-S100A1 dosages of 1.5×10^11 (6-fold), 1.5×10^12 (20 fold) and 1.5×10^13 (50-fold), respectively. […]"}, "[4]": {"tested_on": "C57B/6 mice with impaired cardiac function due to experimental myocardial infarction", "assay": "CrP/ATP ratio as surrogate for cardiac metabolism in failing mouse hearts", "description": "as §1"}, "[5]": {"tested_on": "domestic pigs with impaired cardiac function (post-ischemic heart failure)", "assay": "Cardiac function (LV EF %, LV+dp/dt max) in failing pig hearts", "description": "as §2"}, "[6]": {"tested_on": "C57B/6 mice with normal cardiac function", "assay": "Cardiac performance (echocardiography, LV EF %) versus myocardial S100A1 protein level in normal mice", "description": "The range of myocardial S100A1 protein expression that conveys cardiac performance enhancement in mice with normal cardiac function is determined by the use of AAV9-mediated human S100A1 cDNA myocardial delivery. The cardiac performance with respect to gradually increasing myocardial S100A1 protein levels was assessed in normal 6 months old C57B/6 mice with the aim to determine the efficient dose range of S100A1 protein concentrations in normal myocardium for acute and sustained enhancement of cardiac function in vivo. Techniques used are described in detail in Voelkers et al. Circ Res (2011) 108; 27-39 employing intravenous application of AAV9 for a gradual increase in global myocardial transgene expression; in Most et al. JCI (2004) 114; 1550-1563 for echocardiography for cardiac function analysis. AAV9-S100A1 and corresponding control vector generation and use of the cardiac specific promoter element to drive expression of both transgenes is described in detail in Pleger et al. Science Translational Medicine (2011) 3, 92ra64. The S100A1 overexpression (2, 4, 8, 20 and 50 fold) corresponds to intravenous AAV9-S100A1 dosages (total virus particles; tvp) 5×10^10, 1×10^11, 2×10^11, 5×10^11, 1×10^12 respectively. Total S100A1 protein amount in murine myocardium was assessed by ELISA as described in detail in Example 4. S100A1 concentrations were measured by Western Blot as described by Most et al. JCI (2004) 114; 1550-1563 using a custom-made rabbit anti-S100A1 polyclonal IgG antibody (SA 5632). 0.83 μg S100A1 protein/g wet weight myocardium equals normal S100A1 values in healthy left ventricular myocardium and has been set as 1 for relative comparison. Conversion between n-fold relative changes assessed by WB and total myocardial S100A1 protein measured by ELISA is given by the second x-axis. […] The biologically effective S100A1 dosages fall into the range between 0.83 to 41.5 μg S100A1 protein/g wet weight myocardium and peak actions relate to 3.32 μg S100A1 protein (assessed by ELISA)."}, "[7]": {"tested_on": "domestic pigs with impaired cardiac function (post-ischemic heart failure)", "assay": "β-adrenergically triggered ventricular tachyarrhythmias, large animal model", "settings": "large animal example, FIG. 8", "description": "as §2"}, "[8]": {"settings": "re-expression to normal and up to a 50 fold increase"}}, "data": [{"molecule": "S100A1: EF-hand calcium-binding protein of the S100 family; human S100A1 expressed in myocardium from AAV-delivered cDNA (protein, UniProt P23297 1-94, looked up) Protein S100-A1: MGSELETAMETLINVFHAHSGKEGDKYKLSKKELKELLQTELSGFLDAQKDVDAVDKVMKELDENGDGEVDFQEYVVLVAALTVACNNFFWENS", "values": [{"measurement": "effect of further increase in cardiac S100A1 protein concentrations", "setting": "[1]; above the therapeutic window", "value": "complete loss of S100A1's therapeutic anti-arrhythmic actions"}, {"measurement": "β-adrenergically triggered ventricular tachyarrhythmias", "setting": "[1]; [8]", "value": "prevents β-adrenergically triggered ventricular tachyarrhythmias"}, {"measurement": "S100A1 overexpression at which therapeutic actions peak", "setting": "[2]", "value": "around 4 fold"}, {"measurement": "total S100A1 protein amount at which therapeutic actions peak", "setting": "[2]", "value": "3.32 μg S100A1 protein/g wet weight myocardium"}, {"measurement": "cardiac function assessed by LV EF % and LV+dp/dt max", "setting": "[2]; S100A1 re-expression and over-expression", "value": "restores and improves cardiac function"}, {"measurement": "effect of further increase in cardiac S100A1 protein concentrations", "setting": "[2]; above the therapeutic window", "value": "complete loss of S100A1's therapeutic performance enhancement"}, {"measurement": "CrP/ATP as a surrogate for cardiac metabolism restoration", "setting": "[3]", "value": "improves the CrP/ATP"}, {"measurement": "effect of further increase in cardiac S100A1 protein concentrations", "setting": "[4]; above the therapeutic window", "value": "complete loss of S100A1's therapeutic anti-arrhythmic actions"}, {"measurement": "CrP/ATP ratio as surrogate for cardiac metabolism restoration", "setting": "[4]; [8]", "value": "improves the CrP/ATP ratio"}, {"measurement": "effect of further increase in cardiac S100A1 protein concentrations", "setting": "[5]; above the therapeutic window", "value": "complete loss of S100A1's therapeutic actions"}, {"measurement": "cardiac function assessed by LV EF % and LV+dp/dt max", "setting": "[5]; [8]", "value": "restores and improves cardiac function"}, {"measurement": "increase of cardiac S100A1 protein concentrations at which left ventricular ejection fraction (LV EF %) peaks", "setting": "[6]; anesthetized normal mice, compared to normal S100A1 protein levels, assessed by WB", "value": "4-6 fold"}, {"measurement": "effect of further increase in cardiac S100A1 protein concentrations", "setting": "[6]; normal mice, above the effective range", "value": "loss of the S100A1-mediated contractile performance enhancement"}, {"measurement": "S100A1 protein amount of peak actions", "setting": "[6]; normal mice, assessed by ELISA", "value": 3.32, "unit": "μg S100A1 protein"}, {"measurement": "effect of further increase in cardiac S100A1 protein concentrations", "setting": "[7]; above the therapeutic window", "value": "complete loss of S100A1's therapeutic actions"}, {"measurement": "β-adrenergically triggered ventricular tachyarrhythmias", "setting": "[7]; [8]", "value": "prevents β-adrenergically triggered ventricular tachyarrhythmias"}]}]}
